# Results as given in a protein production outcome set (Wang et al. 2014).
# Assay: label from the status in PepcDB records
row,Sequence,protein production
1,MKNKLAITKLSNNVFLLLCTALTFTPIANAAEVIELTIAEPSALKPDFIGYNANMMSAMSTNPWDRTELTQLYKNTGTSIIRYPGGTIANNFDWPTGNQIKINSSGEESLGSYDYKISNFKTGYQNAGFEPIFVVNLLTRDLQHTLDGLADATAKSLPINRIELGNEFFLKDEAYVDMFPSGQDYVSKADIWTDAIKAIYPHVEIAYVSTMKKDPRSLEWNEKISQCTKCDAIIIHTYTRSELNPVLPADKSTSYFGTNEEQNQQWQQFITNSGVDIMLAQPFEAWHGYTSLNNLPSDKKIWITEFNMKDGTGPTRNTWAHALFNANQLQSFLTDGRVEIALLHNLITGAKSGSHYLGNTFSGLTIDHGQGDLSSQKYSLSAGGIAMRAFGSVLKGMDTIAKINLSDTPTVSPTGYADYDAIYGWQGSNSANEEQRYLLINTSSVSYTVNTENLTTSNKSVRQYWTKPQTFIHSEEVLSGGMVNSLPTLLKLPAYSITVIGETAIELPSNYQQTLTLTATDDHFTKEANPNGKGQPTASQININNSEGDQSRPHIKFNTNQVKGSIESVTLKVYSESVTDTVSAHKINNEWDEYELTWNTMPTLGEFINSASADKNAWLEINVTASLLKSDSLLSFALTNSLTSLNKFSSKEGNKAPELIITTSNAVINVADTNITKDDANILQYYSNSLADAVSDDDNDKLSFYKTSGPSWLMLWSNGKIEGTPTADDIGENTFAIKVSDNTGQASATTALNLTINVISDAPTNAAPVWNNIQNILQQATENISYNSNILALATDADNDALIFAKVSGPDWLSLSDAGEVTGTATNSDIGENNVIVSVTDGTNNSNEFINNELIITVTAEIAVEPINNAPTWSNENIALELATQEQAYTNNIMTFTNDLDGDILVFAKVSGPQWLTLSEAGDITGTPSGNDIGENIFILSVTDSDSDTAQVINNTFTIIVSTKPEPEPTPKTEEDNSEGGSISFSLLLLCFLRVFTMRNKF,failed
2,EDRNFVYLKRQVPMDVADKIKQMALPGIHQQPESRRYYPEGEVTAHIVGFNNVEDQGQEGVELTFNQQLSGQPGSRRVIKDRLGRVIEDVQAVTLPVDGRDLRLSID,failed
3,MRFSQLLLALCCLTFGAQADVFIKQEDMDLKQALEAIAKDMQLKLVSDIDSKTSSQPITQTLSGSGPMLLSKLSSVFDFDWYTFGGTLTIQSGQQYANYTYKPKNISPSQLLSEMKGAFKTNSTTKIKLVERGHSLLFSGTRKFVNDAMGYASMVDRNQFLEKGNNLEVARIEFNYVSVMDRNIATYDGQVNFPGAQSLIAAAITNIGQFTNLNDEELTSRAYRVKLSQGEKQALEEDEKSTKVQALPGTNALLIRGTQEEVKLAKRIAALIDVKRRQLLFSLKVYDISAERKENLGIDSGWLNGNRGIYDIVVPPFTETKDFVKNFQALYSNGIARSVYETNLVALENQQSQFGKKQTATLTLISDKQVKTEKIEADNSLYVTGRLLPSGQVQARIQYVEESLDEDDNEDSNRPPRVSSQSLNSEVYIQPNQTVILGGFDNTVTQQQESGVPIISSIPLLGELFKYTSESKHKYKRYVSISFQVIE,failed
4,MPYDWKRTETRQELRLWPHNSLPPRGAAGFVLLVFALGLLPLIAVLGSPLLWGLLPFLLLAVAGLWLAIEANYRQRRILEVLTLDPERAHLVRHNPRGAVQEWDCNRYWARATLHAHGGPVPHYVTLQGCGREVEIGAFLSEDERIALYDDLREMLSK,failed
5,MLKAFRKNQHPVAIPSTLPDGSAWPRISIVTPSYNNAKYIEETIISVLEQGYPDVEHIIVDGASKDGTAAILDRYRGHVARIIQEPDTGQSNAINKGMRLATGEIVTWLNSDDLLAPGALAAVAMAFHMSGADMVAGGCQLYRNGGYLGTHLTSCADGTLPAEEISDLYGGWQTGKFFYQPEVMFTRDLWQRAGGQVREDLHYCMDVEMWLRFASCGARLHVIGAPVAMFRLHEEQKTNNPDASPDEYIPVANAWRTTHGLPPITRTTLPPPPPPLKVAFVNDIGFQYGAGIAHQRLFTAVSSAGHTVRGWATGFQSPRDVFEATAARIISEIEAFEPDVVVCGNLHCTIADSDMLVRLTDRWPTCFCLHDLWLLTGHCPHPGFLDCVRHLAGCDHTCPSPDTYPTIAAGDIRKAWDAKREVMARDTFLALANSNWTRAQHDGCTTPGHEARLLRLGCDESIFHPGDRLEARRQLGLDMDAFVVLMPMVDFSSPFKGSVEGLEALSGAGLENLQVICFGVVEQEMIARFPILTALGYLHDPEAVATAYRAADVVVSFSHAETFGQTLMEAACCGIPSLAYRCTGLPDAVVDGVSGFLVDETPDALITRLHQLHADANLRASLGTWAALYARNSRCLQAEYHSFHTNLEEAGLLAPGRLGKNIFFAHTEAHEAEPSIPVSDPRPGSAFKNWLRRELPTPVWMALRRVYRGTKSRLGMHP,failed
6,MIIKPAGDSAFLISFGDEISEEINDRVHSLAKAIEKESPEWLVELVPAYSSLLVIYDPLKASYEEVESYLKRISAREVERIKGKTIEIPVAYGGEFGPDIEFVAQYNGLSVDDVIEIHSKPLYRVYFLGFLPGFAYLGGMDERIATPRLEKPRLKVPAGSVGIAGKQTGWYAIESPGGWRIIGRIPLRTFNPGKVPPSIVLPGDYVKFVPIDEKEFWEIYGREWE,not failed
7,MDISLLKQVVQSTNKIALSTAVNNEADVKIVNFVWYEAQPDTLYFSSVKTSPALKVYDQNPDIAFITIPNDGTAGNPYLRAQHVKLQRSTKTMTDLLPQYLETVPNYQQVWDAIGSTLVVFELKLTDLFVDAGVGGEKQTLTFN,not failed
8,MRKPIEHTADIAYEISGNSYEELLEEARNILLEEEGIVLDTEEKEKMYPLEETEDAFFDTVNDWILEISKGWAPWRIKREGNELKVTFRKIRKKEGTEIKALTYHLLKFERDGDVLKTKVVFDT,not failed
9,MKWNSNLYDHKHSFVAEYGKSMINFVNVGKDQKILDLGCGTGVLTNELAKNGATVIGTDLSKNMIDKAKTNYPNLIFQVKDATNLSFKNEFDTVFSNAVFHWISNQEKLLHSIYTCLKDNGTLICEFGAQNNISQIQTAFEKVIEQKGYSYCSPFFFPSKEEYKLLLDQAGFEVKHIIEYDRPTPLADGEKGLRNWICQFFASDLLEFSDEQKEQILFETEKLCKNSIWKNNQWVADYRRIQIIAVKNKNNGTK,failed
10,MDDISVSKSNHGNVVVLNIKASSLADTSLPSNKHESSSPPLLSVHFLQKLLAELVGTYYLIFAGCAAIAVNAQHNHVVTLVGIAVVWGIVIMVLVYCLGHLSAHFNPAVTLALASSQRFPLNQVPAYITVQVIGSTLASATLRLLFDLNNDVCSKKHDVFLGSSPSGSDLQAFVMEFIITGFLMLVVCAVTTTKRTTEELEGLIIGATVTLNVIFAGEVSGASMNPARSIGPALVWGCYKGIWIYLLAPTLGAVSGALIHKMLPSIQNAEPEFSKTGSSHKRVTDLPL,failed
11,MLLILAILPIVVTVGLGVFAGLRHQFAPTTSDILIQLVMHYALPLSLFGGILSLKRATIIQNSSVALWLALGMLGGMVIVIVSQCCFHQQLETGTLRALVIASPSIPFMGVSVLLVVFGKISVLLVALGGLYMNLVQVPVSVLLLTLAGGSTPEQRWRAGWQKLCRASRQPVVWAPISAFLLNLAGLRLPSAWLTNFTELGQAAGGVALFALGLLLTTRPWRLTRMVVLNVLLKNLGLPVLIWGIMASLGVSLSNQQLVVLTLAIPTATIATMLAVQNHLAPDEYVATQMLSTVIAPLTMGFLMWGLQLV,failed
12,PGFIDMHAHSELRLFENPGAREKLTQGITTEVLGQDGVSVAPVPPNLTDEWAERVKSLDGTLGETWPWHTVSGYLEALESVEPAVNCAYYAPHGNIRSMLAGFEDRPLSGEHVVAAGPVTGQRLDRPKSDHDTAPGELDAIRQELEVALEEGAFGMSKGMIYPPSSYARDDELVALADTLAKRDSFMISHVWNETDRVVESIDRYLDICRRGGCHAHVSHLKVGGQQNWGDSEAVLDLFDDAVDRGQRVTFDQYPYTAGSTMLTALLPPWARQGDSEAIRHRLNSAAVRDRIAADISQPGDWENLAYAAGSWDNILITRTGSGRYQGDTIADIAAEMDREPVDAMCELLVAEELDVTMADFVMAETDIERFLADDRGTFCTDGIFGGKPHPRAIGAFSRILERYVRERNVLSPELLAYKAAGNPADILG,failed
13,MVNPIATGILVLAALYFARSILMPLAFSLFVIALAWPIQMALQRRIPRLAALLITLLLVVLVIVIVGSAIVWGLGELSQWLFYNTGRLQAIYASWTDWLEGHGIAIVSPLGELFSISRLVGLTHSLVTRLNSVAGFAVLTFIFVMLGLLEAEDLQRRLRSSLAQPQGEMLLHIGREIAGKIRRFMVVRSLACILTGLVVWAFTLVAGLELASAWAAIAFALNYIPFIGPLMATIFPTLFAIAQSGSWQLALIVFVGLNVIQFAIGSYLEPFLTGASLAISPFAVMFAVFFWSFMWGVPGAFIGVPILIVVVTWCAHEQSTRWIATLLSGGRQST,failed
14,MDVTGKSLKRILLSLAVFCILITGPGIACAEEATTQEKEILFSDYFKSMMDMAQDKYKGEITEKQMLEGALKGIFSTMDSYTVYYTVEESQDFFTDINGSYTGIGVVMSEVDGKIVIDKVYPSSPAEEAGIKKGDVIAQVDGKSVENLSLEEVAGLIKGPSGTKVVIGVLRNGTDGVIELEVTRRQIIINPVTHKIEGDIGYIKLESFNSNASKAMEEALKQMDKNNIKKIILDLRDNPGGDVGQAVSIARKFVKKGLITKLDFKSESQKDEEYYSYLEELKYKLVVLVNENSASASEILAGAIQDTGSGILVGTTTFGKGKVQNLYPILTPEAVEKYRKETGETFVNGYDLLEKHGIYPSDEEIIGWVKITTGEYYTPNGRMIDGVGLEPDVYVENEPEGKYKILEGVEKLRKVTKPSLNAQSEDVLNAEKILSALGYDVDTPDNLMDEKTVKAVAEFQRDCGLYSYGVLDFATQQALNDKLDELLLVKNRDKQYEKAVELLEN,failed
15,MKSQNPSKRNLPGVIIAYFLIYVVWGSTYFFIGVALKDFSPFLLGALRFTTAGLILLGICYLRGEQIFKKSLVKRSAVSGIVLLFVDMAVVMLAQRYLTSSLVAIIASSTALWILLLDVPMWRTNFRNPLTIAGGGIGFGGVVMLYAEQLNAEWLHPQSERGILLLVFGCISWALGTLYAKYRSSREEEVNAFAGSAWQMLFASVMFWICAVVNGDVREADLSTVSVTSWFSLLYLISFGSLLAYSAYVWLLKVRPAAEVGTHAYVNPFIAVLLGVSFGNEQVTFVQLSGLLVILLGVMLISRKRNKMKSTAISR,failed
16,MEEFAVVIIGAGPAGGQCARQLAQQGVRVLLVEQHSNFSQNNYSSAASPLETMALFDLPPGVVARYWRNLAIAATEKEQIWYSDQPRGVVFDFAKLRQFLADTVTKAGGQVWLGHRFWGYQQVGDGLEVTLRRSSKNSLSSDSVEKVEKVTVKTQVLIDATGSKRAVINCGQPKATDNNQYYRGIGTEYLITVDETTHQRFADTLVFFLGYRWSPQGYSWIFPMDNHQLKVGTAIFAGQHRYLGELKPLRSYTEAIIRDYLKLEKSQYHLEEIHGSVLDYAVNQGDTYHRGSVLAIGDAVSTVNFLGGEGIRHGMQGANIAVPFVADYLRGHVQAFEKYEQAMKAHFAEPWQRTEKLSQRVYLEFGDRQIDLGVTYLSYLRYDDVLDLLFHYRFDRIYGGITPLLLKKVAQFSQQCRQWLRKLSPLEHHHHHH,failed
17,NNQIGFCGVRKNINGNLYLLVYGMPAAINIDPIEKKPILHMYPNSLIYSISTVGCSFACQYCQNYDISQRRNIEGFDYSPEEIVNSAIEDGCRGIAYTYNEPSIFMEFAHDVGILARKRGLINIFVTNGYETPEAVEYSKDFLDAATVDFKGNASNDFYRKYISVPSADPIFDTIKLMKESGIHVEITDLVVPRVGDKLSDARSMLERLISILGYEFPISFLRFHPDYKMMDLPPTPLETLKAHYNLAVSMGLKYVYIGNVPGYYEDTYCPNCHSLLIKRHGFNSSVV,failed
18,METNKNFAVIGLGEFGSRICEVLVDGGASVVAFDHDIQAVERIKKIVPAAMLVETTNEEALLKAPLDDVEVAIVAIGNNIEASVLTTTLLKQRDIPYVLARAVSPLHATVLRRVGANEVLNIEISAATRIARRLISPDVMDSIAVTKDFSIREIIVPKFFIGKTVGSVALKEKFNITLIALVRMALDIDSVGNPVKQEVMHYPEDDFELREGDKLFLIGSNIKLEEFRNM,failed
